US20240165282A1, “CONFORMATIONAL CONSTRAINED SOMATOSTATIN RECEPTOR 3 PEPTIDE LIGANDS AND THEIR CONJUGATES AND USES THEREOF” (STARGET PHARMA LTD., priority 2021, published 2024)
*1 amine or outer side, *2 acyl side, *3 side chain or, on linkers, in order; H or OH if unused. Bridges are numbered along the chain shown (N, C = ends). [ ]: non-standard residue; d: D form. The star is where a group is joined. DOTA = O=C(O)CN1CCN(CC(=O)O)CCN(CC(=O)*)CCN(CC(=O)O)CC1; N(2-mercaptoethyl)Gly = O=C(CN(CCS[*:3])[*:1])[*:2]; Orn = NCCC[C@H](N)C(=O)O; GABA = NCCCC(=O)O

Experiments:
Assay in all cases: Radioligand binding, displacement of 125I-Tyr11-SRIF-14
[1] = target: SSTR3 (Homo sapiens, UniProt P32745); set-up: host or cells: CHO (Chinese Hamster Ovary) cells, membrane preparation; conditions: for affinity and selectivity to SSTR3 (in words): binding data; for % displacement of [^125I] Tyr^11-SRIF-14: hSSTR-3
Description: (§1) The binding to human cloned receptors SSTR-1, or SSTR-2 or SSTR-3 evaluated in stable and selective transfected CHO (Chinese Hamster Ovary) cells and binding to STSR-4 and SSTR-5 in stable and selective transfected Chem-1 (Rat ChemiSCREEN) cells. […] The binding reactions were filtered, the filters were washed, and the bound radioactivity was counted using a gamma counter.
(§2) The following table depicts the conditions of binding assay to each of the somatostatin receptors used for the evaluations of binding affinities of the tested peptides. All assays were performed by quantitation method of radioligand binding under 25° C. The vehicle was 1% DMSO, the incubation buffer was 25 mM HEPES, pH 7.4, 5 mM MgCl2, 1 mM CaCl2, 0.1% BSA. […] The significance criteria were >50% of max inhibition. […] This specific binding data used for calculation of Bmax values which is the concentration of each of the expressed cloned receptor in its transfected cell system.
(§3) The Results of IC50 values were determined by a non-linear, least squares regression analysis using MathIQ™ (ID Business Solutions Ltd., UK). […] The Hill coefficient (nH), defining the slope of the competitive binding curve, was calculated using MathIQ™.

[2] = target: SSTR2 (Homo sapiens, UniProt P30874); set-up: host or cells: CHO (Chinese Hamster Ovary) cells, membrane preparation; conditions: hSSTR-2
Description: as §1, §2, §3

[3] = target: SSTR1 (Homo sapiens, UniProt P30872); set-up: host or cells: CHO (Chinese Hamster Ovary) cells, membrane preparation; conditions: hSSTR-1
Description: as §1, §2, §3

[4] = target: SSTR5 (Homo sapiens, UniProt P35346); set-up: host or cells: Chem-1 (Rat ChemiSCREEN) cells, membrane preparation; conditions: hSSTR-5
Description: as §1, §2, §3

[5] = target: T1, hSSTR-4 (Homo sapiens, UniProt P31391); conditions: hSSTR-4
T1 construct: host or cells: Chem-1 (Rat ChemiSCREEN) cells, membrane preparation
Description: as §1, §2, §3

Sequence of SSTR3 (P32745 whole entry): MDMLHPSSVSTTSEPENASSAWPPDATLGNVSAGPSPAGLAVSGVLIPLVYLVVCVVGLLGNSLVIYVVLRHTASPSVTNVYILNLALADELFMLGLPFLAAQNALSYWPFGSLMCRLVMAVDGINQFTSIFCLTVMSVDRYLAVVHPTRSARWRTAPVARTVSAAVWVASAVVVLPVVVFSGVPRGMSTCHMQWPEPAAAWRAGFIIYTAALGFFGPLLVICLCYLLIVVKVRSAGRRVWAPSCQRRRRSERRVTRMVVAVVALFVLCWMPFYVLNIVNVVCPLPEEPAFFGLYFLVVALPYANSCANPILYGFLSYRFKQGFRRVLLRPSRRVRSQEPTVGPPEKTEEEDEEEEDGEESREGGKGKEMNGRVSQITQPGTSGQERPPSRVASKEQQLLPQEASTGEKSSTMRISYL
Sequence of SSTR1 (P30872 whole entry): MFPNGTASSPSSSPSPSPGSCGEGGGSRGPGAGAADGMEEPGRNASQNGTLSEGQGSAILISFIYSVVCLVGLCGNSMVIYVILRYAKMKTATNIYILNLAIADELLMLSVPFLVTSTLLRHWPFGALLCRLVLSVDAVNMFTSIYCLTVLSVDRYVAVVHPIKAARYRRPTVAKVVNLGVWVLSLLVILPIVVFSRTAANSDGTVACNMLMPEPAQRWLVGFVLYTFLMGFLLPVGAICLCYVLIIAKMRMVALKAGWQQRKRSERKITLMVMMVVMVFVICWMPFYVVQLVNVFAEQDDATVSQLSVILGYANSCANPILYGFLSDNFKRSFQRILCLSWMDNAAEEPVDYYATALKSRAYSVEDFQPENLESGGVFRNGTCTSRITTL
Sequence of SSTR5 (P35346 whole entry): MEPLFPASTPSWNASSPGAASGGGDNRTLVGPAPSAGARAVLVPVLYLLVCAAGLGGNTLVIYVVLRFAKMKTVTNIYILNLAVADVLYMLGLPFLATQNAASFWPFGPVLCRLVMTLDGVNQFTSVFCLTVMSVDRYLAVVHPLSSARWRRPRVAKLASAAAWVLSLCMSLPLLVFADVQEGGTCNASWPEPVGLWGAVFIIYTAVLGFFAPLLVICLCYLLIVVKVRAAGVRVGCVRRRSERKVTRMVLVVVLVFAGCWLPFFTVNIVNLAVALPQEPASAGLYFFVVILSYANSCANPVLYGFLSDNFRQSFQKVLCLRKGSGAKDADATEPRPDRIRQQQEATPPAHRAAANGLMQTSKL
T1 sequence (P31391 whole entry): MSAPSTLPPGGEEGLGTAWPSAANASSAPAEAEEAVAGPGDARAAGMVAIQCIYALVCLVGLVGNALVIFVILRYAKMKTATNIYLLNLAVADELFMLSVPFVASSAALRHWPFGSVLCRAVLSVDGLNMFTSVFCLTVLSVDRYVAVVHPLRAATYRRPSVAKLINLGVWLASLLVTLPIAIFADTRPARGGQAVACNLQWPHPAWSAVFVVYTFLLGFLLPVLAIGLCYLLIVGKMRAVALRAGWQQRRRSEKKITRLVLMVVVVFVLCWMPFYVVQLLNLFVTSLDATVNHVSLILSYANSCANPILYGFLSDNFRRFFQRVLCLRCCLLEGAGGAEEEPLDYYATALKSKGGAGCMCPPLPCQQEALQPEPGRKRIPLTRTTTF
Sequence of SSTR2 (P30874 whole entry): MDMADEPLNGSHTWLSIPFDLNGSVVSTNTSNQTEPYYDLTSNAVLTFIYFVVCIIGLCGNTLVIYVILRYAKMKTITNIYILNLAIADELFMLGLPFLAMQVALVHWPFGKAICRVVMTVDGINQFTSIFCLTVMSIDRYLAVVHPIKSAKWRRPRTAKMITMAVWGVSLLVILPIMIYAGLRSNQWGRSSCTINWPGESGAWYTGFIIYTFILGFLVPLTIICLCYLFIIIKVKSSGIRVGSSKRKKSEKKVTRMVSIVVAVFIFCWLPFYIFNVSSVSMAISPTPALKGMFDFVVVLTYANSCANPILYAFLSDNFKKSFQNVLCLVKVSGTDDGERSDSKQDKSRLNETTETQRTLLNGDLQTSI

## DOTA-Arg^1-Gly^2-Asp^3-D-Phe^4-Arg^5-Cys^6-Phe^7-D-Trp^8-Lys^9-Thr^10-Phe^11-NTEG^12- NH2 (cyclo 6-12) ({DOTA}-RGD[dF]RCF[dW]KTF[N(2-mercaptoethyl)Gly]-NH2; disulfide 6-12; SMILES C[C@@H](O)[C@@H]1NC(=O)[C@H](CCCCN)NC(=O)[C@@H](Cc2c[nH]c3ccccc23)NC(=O)[C@H](Cc2ccccc2)NC(=O)[C@@H](NC(=O)[C@H](CCCNC(=N)N)NC(=O)[C@@H](Cc2ccccc2)NC(=O)[C@H](CC(=O)O)NC(=O)CNC(=O)[C@H](CCCNC(=N)N)NC(=O)CN2CCN(CC(=O)O)CCN(CC(=O)O)CCN(CC(=O)O)CC2)CSSCCN(CC(N)=O)C(=O)[C@H](Cc2ccccc2)NC1=O) [SEQ ID NO: 14]
[1]
  affinity and selectivity to SSTR3 (in words): did not interfere with the affinity and selectivity of SEQ ID NO: 3 to SSTR3
[1]; at 1 nM (in brackets)
  % displacement of [^125I] Tyr^11-SRIF-14: 46%
[1]; at 10 nM
  % displacement of [^125I] Tyr^11-SRIF-14: 89%

## DOTA-D-Phe^1-Arg^2-Cys^3-Tyr^4-D-Trp^5-Lys^6-Thr^7-Phe^8-NTEG^9-NH2 (cyclo 3-9) ({DOTA}-[dF]RCY[dW]KTF[N(2-mercaptoethyl)Gly]-NH2; disulfide 3-9; SMILES C[C@@H](O)[C@@H]1NC(=O)[C@H](CCCCN)NC(=O)[C@@H](Cc2c[nH]c3ccccc23)NC(=O)[C@H](Cc2ccc(O)cc2)NC(=O)[C@@H](NC(=O)[C@H](CCCNC(=N)N)NC(=O)[C@@H](Cc2ccccc2)NC(=O)CN2CCN(CC(=O)O)CCN(CC(=O)O)CCN(CC(=O)O)CC2)CSSCCN(CC(N)=O)C(=O)[C@H](Cc2ccccc2)NC1=O) [SEQ ID NO: 25]
[1]; at 1 nM (in brackets)
  % displacement of [^125I] Tyr^11-SRIF-14: 65%
[1]; at 10 nM
  % displacement of [^125I] Tyr^11-SRIF-14: 94%
[2]; at 1 nM (in brackets)
  % displacement of [^125I] Tyr^11-SRIF-14: 0(0) %
[2]; at 10 nM
  % displacement of [^125I] Tyr^11-SRIF-14: 0(0) %
[3]; at 1 nM (in brackets)
  % displacement of [^125I] Tyr^11-SRIF-14: 1%
[3]; at 10 nM
  % displacement of [^125I] Tyr^11-SRIF-14: 15%
[4]; at 1 nM (in brackets)
  % displacement of [^125I] Tyr^11-SRIF-14: 6%
[4]; at 10 nM
  % displacement of [^125I] Tyr^11-SRIF-14: 16%
[5]; at 1 nM (in brackets)
  % displacement of [^125I] Tyr^11-SRIF-14: 5%
[5]; at 10 nM
  % displacement of [^125I] Tyr^11-SRIF-14: 8%

## DOTA-D-Phe^1-Glu^2-Glu^3-Orn^4-Cys^5-Phe^6-D-Trp^7-Lys^8-Thr^9-Phe^10-NTEG^11-NH2 (cyclo 5-11) ({DOTA}-[dF]EE[Orn]CF[dW]KTF[N(2-mercaptoethyl)Gly]-NH2; disulfide 5-11; SMILES C[C@@H](O)[C@@H]1NC(=O)[C@H](CCCCN)NC(=O)[C@@H](Cc2c[nH]c3ccccc23)NC(=O)[C@H](Cc2ccccc2)NC(=O)[C@@H](NC(=O)[C@H](CCCN)NC(=O)[C@H](CCC(=O)O)NC(=O)[C@H](CCC(=O)O)NC(=O)[C@@H](Cc2ccccc2)NC(=O)CN2CCN(CC(=O)O)CCN(CC(=O)O)CCN(CC(=O)O)CC2)CSSCCN(CC(N)=O)C(=O)[C@H](Cc2ccccc2)NC1=O) [SEQ ID NO: 22]
[1]
  affinity and selectivity to SSTR3 (in words): did not interfere with the affinity and selectivity to SSTR3
[1]; at 1 nM (in brackets)
  % displacement of [^125I] Tyr^11-SRIF-14: 0%
[1]; at 10 nM
  % displacement of [^125I] Tyr^11-SRIF-14: 49%
[2]; at 1 nM (in brackets)
  % displacement of [^125I] Tyr^11-SRIF-14: 0(0) %
[2]; at 10 nM
  % displacement of [^125I] Tyr^11-SRIF-14: 0(0) %
[3]; at 1 nM (in brackets)
  % displacement of [^125I] Tyr^11-SRIF-14: 8%
[3]; at 10 nM
  % displacement of [^125I] Tyr^11-SRIF-14: 7%
[4]; at 1 nM (in brackets)
  % displacement of [^125I] Tyr^11-SRIF-14: 0(0) %
[4]; at 10 nM
  % displacement of [^125I] Tyr^11-SRIF-14: 0(0) %
[5]; at 1 nM (in brackets)
  % displacement of [^125I] Tyr^11-SRIF-14: 0%
[5]; at 10 nM
  % displacement of [^125I] Tyr^11-SRIF-14: 3%

## DOTA-D-Phe^1-Lys^2-Cys^3-Tyr^4-D-Trp^5-Lys^6-Thr^7-Phe^8-NTEG^9 -NH2 (cyclo 3-9) ({DOTA}-[dF]KCY[dW]KTF[N(2-mercaptoethyl)Gly]-NH2; disulfide 3-9; SMILES C[C@@H](O)[C@@H]1NC(=O)[C@H](CCCCN)NC(=O)[C@@H](Cc2c[nH]c3ccccc23)NC(=O)[C@H](Cc2ccc(O)cc2)NC(=O)[C@@H](NC(=O)[C@H](CCCCN)NC(=O)[C@@H](Cc2ccccc2)NC(=O)CN2CCN(CC(=O)O)CCN(CC(=O)O)CCN(CC(=O)O)CC2)CSSCCN(CC(N)=O)C(=O)[C@H](Cc2ccccc2)NC1=O) [SEQ ID NO: 24]
[1]; at 1 nM (in brackets)
  % displacement of [^125I] Tyr^11-SRIF-14: 66%
[1]; at 10 nM
  % displacement of [^125I] Tyr^11-SRIF-14: 88%

## DOTA-GABA-D-Phe^1-Arg^2-Cys^3-Phe^4-D-Trp^5-Lys^6-Thr^7-Phe^8-NTEG^9-NH2 (cyclo 3-9) ({DOTA-GABA}-[dF]RCF[dW]KTF[N(2-mercaptoethyl)Gly]-NH2; disulfide 3-9) [SEQ ID NO: 7]
[1]
  affinity and selectivity to SSTR3 (in words): increased the affinity and selectivity
